Laboratory results: US20230048960A1 (University of Washington, published 2023)
Square brackets hold non-standard residues; d marks the D form.

B1: AP503m (peptide)
peptide: Ac-RGN[dW]N[dE]S[dK]MNEYYGW[dM]L[dM]T[dC]MGR-NH2
SMILES: CSCC[C@H](NC(=O)[C@@H](CCCCN)NC(=O)[C@H](CO)NC(=O)[C@@H](CCC(=O)O)NC(=O)[C@H](CC(N)=O)NC(=O)[C@@H](Cc1c[nH]c2ccccc12)NC(=O)[C@H](CC(N)=O)NC(=O)CNC(=O)[C@H](CCCNC(=N)N)NC(C)=O)C(=O)N[C@@H](CC(N)=O)C(=O)N[C@@H](CCC(=O)O)C(=O)N[C@@H](Cc1ccc(O)cc1)C(=O)N[C@@H](Cc1ccc(O)cc1)C(=O)NCC(=O)N[C@@H](Cc1c[nH]c2ccccc12)C(=O)N[C@H](CCSC)C(=O)N[C@@H](CC(C)C)C(=O)N[C@H](CCSC)C(=O)N[C@H](C(=O)N[C@H](CS)C(=O)N[C@@H](CCSC)C(=O)NCC(=O)N[C@@H](CCCNC(=N)N)C(N)=O)[C@@H](C)O
B2: AP504m (peptide)
peptide: Ac-RGN[dC]N[dE]S[dK]MNEYYGW[dM]L[dM]L[dT]MGR-NH2
SMILES: CSCC[C@H](NC(=O)[C@@H](CCCCN)NC(=O)[C@H](CO)NC(=O)[C@@H](CCC(=O)O)NC(=O)[C@H](CC(N)=O)NC(=O)[C@@H](CS)NC(=O)[C@H](CC(N)=O)NC(=O)CNC(=O)[C@H](CCCNC(=N)N)NC(C)=O)C(=O)N[C@@H](CC(N)=O)C(=O)N[C@@H](CCC(=O)O)C(=O)N[C@@H](Cc1ccc(O)cc1)C(=O)N[C@@H](Cc1ccc(O)cc1)C(=O)NCC(=O)N[C@@H](Cc1c[nH]c2ccccc12)C(=O)N[C@H](CCSC)C(=O)N[C@@H](CC(C)C)C(=O)N[C@H](CCSC)C(=O)N[C@@H](CC(C)C)C(=O)N[C@@H](C(=O)N[C@@H](CCSC)C(=O)NCC(=O)N[C@@H](CCCNC(=N)N)C(N)=O)[C@H](C)O
B3: AP503d (peptide)
peptide: Ac-RGN[dW]N[dE]S[dK]MNEYYGW[dM]L[dM]T[dC]MGR-NH2
modifications: also: disulfide-linked homodimer (Cys20 to Cys20 of other copy), disulfide at 20, other end not in the chain
B4: AP502m (peptide)
peptide: Ac-RGN[dW]N[dE]S[dK]M[dN][dE][dY][dY]GW[dM]L[dM]C[dT]MGR-NH2
SMILES: CSCC[C@H](NC(=O)[C@@H](CCCCN)NC(=O)[C@H](CO)NC(=O)[C@@H](CCC(=O)O)NC(=O)[C@H](CC(N)=O)NC(=O)[C@@H](Cc1c[nH]c2ccccc12)NC(=O)[C@H](CC(N)=O)NC(=O)CNC(=O)[C@H](CCCNC(=N)N)NC(C)=O)C(=O)N[C@H](CC(N)=O)C(=O)N[C@H](CCC(=O)O)C(=O)N[C@H](Cc1ccc(O)cc1)C(=O)N[C@H](Cc1ccc(O)cc1)C(=O)NCC(=O)N[C@@H](Cc1c[nH]c2ccccc12)C(=O)N[C@H](CCSC)C(=O)N[C@@H](CC(C)C)C(=O)N[C@H](CCSC)C(=O)N[C@@H](CS)C(=O)N[C@@H](C(=O)N[C@@H](CCSC)C(=O)NCC(=O)N[C@@H](CCCNC(=N)N)C(N)=O)[C@H](C)O
B5: AP536m (peptide)
peptide: Ac-RGE[dL]N[dY]F[dW]MNEYYGW[dT]C[dN]M[dR]MGK-NH2
SMILES: CSCC[C@H](NC(=O)[C@@H](CCCNC(=N)N)NC(=O)[C@H](CCSC)NC(=O)[C@@H](CC(N)=O)NC(=O)[C@H](CS)NC(=O)[C@H](NC(=O)[C@H](Cc1c[nH]c2ccccc12)NC(=O)CNC(=O)[C@H](Cc1ccc(O)cc1)NC(=O)[C@H](Cc1ccc(O)cc1)NC(=O)[C@H](CCC(=O)O)NC(=O)[C@H](CC(N)=O)NC(=O)[C@H](CCSC)NC(=O)[C@@H](Cc1c[nH]c2ccccc12)NC(=O)[C@H](Cc1ccccc1)NC(=O)[C@@H](Cc1ccc(O)cc1)NC(=O)[C@H](CC(N)=O)NC(=O)[C@@H](CC(C)C)NC(=O)[C@H](CCC(=O)O)NC(=O)CNC(=O)[C@H](CCCNC(=N)N)NC(C)=O)[C@H](C)O)C(=O)NCC(=O)N[C@@H](CCCCN)C(N)=O
B6: AP537m (peptide)
peptide: Ac-RGE[dL]N[dY]F[dW]MNECYGW[dT]M[dN]M[dR]MGK-NH2
SMILES: CSCC[C@H](NC(=O)[C@@H](CCCNC(=N)N)NC(=O)[C@H](CCSC)NC(=O)[C@@H](CC(N)=O)NC(=O)[C@H](CCSC)NC(=O)[C@H](NC(=O)[C@H](Cc1c[nH]c2ccccc12)NC(=O)CNC(=O)[C@H](Cc1ccc(O)cc1)NC(=O)[C@H](CS)NC(=O)[C@H](CCC(=O)O)NC(=O)[C@H](CC(N)=O)NC(=O)[C@H](CCSC)NC(=O)[C@@H](Cc1c[nH]c2ccccc12)NC(=O)[C@H](Cc1ccccc1)NC(=O)[C@@H](Cc1ccc(O)cc1)NC(=O)[C@H](CC(N)=O)NC(=O)[C@@H](CC(C)C)NC(=O)[C@H](CCC(=O)O)NC(=O)CNC(=O)[C@H](CCCNC(=N)N)NC(C)=O)[C@H](C)O)C(=O)NCC(=O)N[C@@H](CCCCN)C(N)=O
B7: AP504d (peptide)
peptide: Ac-RGN[dC]N[dE]S[dK]MNEYYGW[dM]L[dM]L[dT]MGR-NH2
modifications: also: disulfide-linked homodimer (Cys4 to Cys4 of other copy), disulfide at 4, other end not in the chain
B8: AP506m (peptide)
peptide: Ac-[dR]G[dN]W[dN]E[dS]K[dM][dN][dE][dY][dY]G[dW]M[dL]M[dC]T[dM]G[dR]-NH2
SMILES: CSCC[C@H](NC(=O)[C@@H](Cc1c[nH]c2ccccc12)NC(=O)CNC(=O)[C@@H](Cc1ccc(O)cc1)NC(=O)[C@@H](Cc1ccc(O)cc1)NC(=O)[C@@H](CCC(=O)O)NC(=O)[C@@H](CC(N)=O)NC(=O)[C@@H](CCSC)NC(=O)[C@H](CCCCN)NC(=O)[C@@H](CO)NC(=O)[C@H](CCC(=O)O)NC(=O)[C@@H](CC(N)=O)NC(=O)[C@H](Cc1c[nH]c2ccccc12)NC(=O)[C@@H](CC(N)=O)NC(=O)CNC(=O)[C@@H](CCCNC(=N)N)NC(C)=O)C(=O)N[C@H](CC(C)C)C(=O)N[C@@H](CCSC)C(=O)N[C@H](CS)C(=O)N[C@H](C(=O)N[C@H](CCSC)C(=O)NCC(=O)N[C@H](CCCNC(=N)N)C(N)=O)[C@@H](C)O
B9: AP505d (peptide)
peptide: Ac-RGN[dW]C[dE]S[dK]MNEYYGW[dM]L[dM]L[dT]MGR-NH2
modifications: not fully specified (residue 5); printed as RGNwCeSkMNEYYGWmLmLtMGR; also: disulfide-linked homodimer via Cys5
B10: AP506d (peptide)
peptide: Ac-[dR]G[dN]W[dN]E[dS]K[dM][dN][dE][dY][dY]G[dW]M[dL]M[dC]T[dM]G[dR]-NH2
modifications: also: disulfide-linked homodimer (Cys19 to Cys19 of other copy), disulfide at 19, other end not in the chain

Target: Aβ42 (UniProt P05067 672-713)
Sequence (P05067 672-713 limits assumed): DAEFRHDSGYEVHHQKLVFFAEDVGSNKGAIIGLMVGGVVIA
Test: cell-based or functional assay

In order of falling “% inhibition of fibril formation (ThT), AP:Aβ42 1:1” value:
1. B3  100%
2. B7  100%
3. Ac-RGE[dL]N[dY]F[dW]MNEYYGW[dT]C[dN]M[dR]MGK-NH2 (also: homodimer: Cys17 disulfide-bonded to Cys17 of other copy) [AP536d]  100%
4. B9  100%
5. B10  100%
6. Ac-RGN[dW]N[dE]S[dK]M[dN][dE][dY][dY]GW[dM]L[dM]C[dT]MGR-NH2 (also: disulfide-linked homodimer via Cys19) [AP502d]  100%
7. Ac-RGE[dL]N[dY]F[dW]MNECYGW[dT]M[dN]M[dR]MGK-NH2 (also: homodimer: Cys12 disulfide-bonded to Cys12 of other copy) [AP537d]  90.2%
8. Ac-RGN[dW]N[dE]S[dK]MNEYYGW[dM]L[dM]C[dT]MGR-NH2 (also: disulfide-linked homodimer via Cys19) [AP501d]  90%
9. B5  74.1%
10. B8  67.6%
11. B1  61.8%
12. B6  54.2%
13. B2  30%
14. Ac-RGN[dW]C[dE]S[dK]MNEYYGW[dM]L[dM]L[dT]MGR-NH2 (not fully specified (residue 5); printed as RGNwCeSkMNEYYGWmLmLtMGR) [AP505m]  26.8%
15. B4  23.8%

In order of rising “% inhibition of fibril formation (ThT), AP:Aβ42 1:10” value:
1. B4  0%
2. B6  0%
3. B8  0%
4. B1  16.2%
5. Ac-RGN[dW]C[dE]S[dK]MNEYYGW[dM]L[dM]L[dT]MGR-NH2 (not fully specified (residue 5); printed as RGNwCeSkMNEYYGWmLmLtMGR) [AP505m]  16.4%
6. B2  19.2%
7. B5  21.4%
8. B9  79.5%
9. Ac-RGN[dW]N[dE]S[dK]MNEYYGW[dM]L[dM]C[dT]MGR-NH2 (also: disulfide-linked homodimer via Cys19) [AP501d]  81.4%
10. Ac-RGE[dL]N[dY]F[dW]MNECYGW[dT]M[dN]M[dR]MGK-NH2 (also: homodimer: Cys12 disulfide-bonded to Cys12 of other copy) [AP537d]  82.3%
11. Ac-RGE[dL]N[dY]F[dW]MNEYYGW[dT]C[dN]M[dR]MGK-NH2 (also: homodimer: Cys17 disulfide-bonded to Cys17 of other copy) [AP536d]  85.2%
12. Ac-RGN[dW]N[dE]S[dK]M[dN][dE][dY][dY]GW[dM]L[dM]C[dT]MGR-NH2 (also: disulfide-linked homodimer via Cys19) [AP502d]  88.4%
13. B3  100%
14. B7  100%
15. B10  100%

In order of rising “% inhibition of fibril formation (ThT), AP:Aβ42 1:100” value:
1. B1  0%
2. B2  0%
3. B4  0%
4. B5  0%
5. Ac-RGN[dW]C[dE]S[dK]MNEYYGW[dM]L[dM]L[dT]MGR-NH2 (not fully specified (residue 5); printed as RGNwCeSkMNEYYGWmLmLtMGR) [AP505m]  0%
6. B6  0%
7. B8  0%
8. Ac-RGE[dL]N[dY]F[dW]MNEYYGW[dT]C[dN]M[dR]MGK-NH2 (also: homodimer: Cys17 disulfide-bonded to Cys17 of other copy) [AP536d]  43.1%
9. Ac-RGN[dW]N[dE]S[dK]M[dN][dE][dY][dY]GW[dM]L[dM]C[dT]MGR-NH2 (also: disulfide-linked homodimer via Cys19) [AP502d]  47.1%
10. Ac-RGN[dW]N[dE]S[dK]MNEYYGW[dM]L[dM]C[dT]MGR-NH2 (also: disulfide-linked homodimer via Cys19) [AP501d]  48.2%
11. B10  49.1%
12. B9  51.4%
13. B7  64.3%
14. B3  70.1%
15. Ac-RGE[dL]N[dY]F[dW]MNECYGW[dT]M[dN]M[dR]MGK-NH2 (also: homodimer: Cys12 disulfide-bonded to Cys12 of other copy) [AP537d]  72%
